Data taken from CN115057938A (dated 2022).

Target: 野生株SARS-COV-2 RBD蛋白(Ag27) (SARS-COV-2 野生株, UniProt P0DTC2 319-541)

| Binder | IC50 |
| --- | --- |
| R1463 (VHH, also called RX017 VHH-His标签; 对照) VHH: QVQLVESGGGVVQPGGSLRLSCTCSRCTFNWDGMGWFRQAPGKGLEFVATISWSGQEPAYADSVKGRFTISRDNSKNTLYLQMTSLRAEDTAVYYCAAAQYTGASYSILRDQVGYDYWGQGTLVTVSS | 0.0359 nM |
| R1475 (VHH, not shown: small tags and cut ends, also called 人源化多价结合蛋白 R1475; VHH-Linker-VHH-His标签) VHH 1: QVQLVESGGGVVQPGGSLRLSCTCSRCTFNWDGMGWFRQAPGKGLEFVATISWSGQEPAYADSVKGRFTISRDNSKNTLYLQMTSLRAEDTAVYYCAAAQYTGASYSILRDQVGYDYWGQGTLVTVSS VHH 2: QVQLVESGGGVVQPGGSLRLSCTCSRCTFNWDGMGWFRQAPGKGLEFVATISWSGQEPAYADSVKGRFTISRDNSKNTLYLQMTSLRAEDTAVYYCAAAQYTGASYSILRDQVGYDYWGQGTLVTVSS | 0.0206 nM |
| R1464 (VHH, not shown: small tags and cut ends, also called 人源化多价结合蛋白 R1464; His标签-VHH-Linker-VHH-Linker-VHH) chain (part 1 of 3): HHHHHHQVQLVESGGGVVQPGGSLRLSCTCSRCTFNWDGMGWFRQAPGKGLEFVATISWSGQEPAYADSVKGRFTISRDNSKNTLYLQMTSLRAEDTAVYYCAAAQYTGASYSILRDQVGYDYWGQGTLVTVSS chain (part 2 of 3): QVQLVESGGGVVQPGGSLRLSCTCSRCTFNWDGMGWFRQAPGKGLEFVATISWSGQEPAYADSVKGRFTISRDNSKNTLYLQMTSLRAEDTAVYYCAAAQYTGASYSILRDQVGYDYWGQGTLVTVSS chain (part 3 of 3): QVQLVESGGGVVQPGGSLRLSCTCSRCTFNWDGMGWFRQAPGKGLEFVATISWSGQEPAYADSVKGRFTISRDNSKNTLYLQMTSLRAEDTAVYYCAAAQYTGASYSILRDQVGYDYWGQGTLVTVSS | 0.0272 nM |
